Series [1] has as its target T1, SARS-CoV-2 nucleocapsid (N) protein (SARS-CoV-2, UniProt P0DTC9 2-419). The series is described as follows: SV-AUC; […], pH 7.4; ITC at 20 C; […] (137 mM NaCl). As to conditions: protein: commercial; tags: C-terminal His-tag; chain copies: 2; single strand.
Series [2] addresses T1, SARS-CoV-2 nucleocapsid (N) protein. The series is described as follows: SV-AUC + ITC global fit; […], pH 7.4; ITC at 20 C; […] (137 mM NaCl). Particulars: protein: commercial; tags: C-terminal His-tag; chain copies: 2; single strand.

B1: T20 (ssDNA)
DNA: TTTTTTTTTTTTTTTTTTTT
Consider B1, for which the binding result in series [1] was “binds”.

B2: (GT)2 (ssDNA)
DNA: GTGT
As for B2, in series [1], the Kd is greater than 10 µM.

B3: T6 (ssDNA)
DNA: TTTTTT
With B3, the Kd in series [2] is 600 nM.

B4: T10 (ssDNA)
DNA: TTTTTTTTTT
In series [1], B4 gave a Kd of less than 0.1 µM.

The term Kd denotes the equilibrium constant for the complex coming apart.

The values above are taken from publication doi:10.1101/2021.02.08.430344.
